{"source": "patent US20170173114A1", "about": "“METHODS AND COMPOSITIONS FOR INDUCTION OF UCP1 EXPRESSION” (Joslin Diabetes Center, Inc., priority 2014, published 2017)", "key": {"[1]": {"tested_on": "RIP140 (NRIP1)", "assay": "RIP140 mRNA expression in brown and white preadipocytes", "format": "cell-based", "conditions": "200 ng/mL, three or seven days", "protocol": "Total RNA was isolated with QIAzol lysis reagent (Qiagen, Valencia, Calif.) and purified by RNeasy Mini columns (Qiagen) following the manufacture's instructions. cDNA was prepared from total RNA using the Advantage RT-PCR kit (BD Biosciences, Palo Alto, Calif.) according to manufacturer's instructions. Diluted cDNA was used in a PCR reaction with SYBR Green Master Mix (Applied Biosystems, Foster City, Calif.) and primers specifically designed for detection of the gene of interest. PCR reactions were run in duplicate for each sample and quantitated in the ABI Sequence Detection System (Applied Biosystems). Data were expressed as arbitrary units after normalization to levels of expression of internal controls for each sample. Sequences of primers for specific genes are each obtained from the published literature or designed using publically available gene sequence databases. Unless otherwise indicated, gene expression data described in the examples below was obtained using QPCR.\nRIP140 directs DNA methylation and interacts with nuclear receptors to silence UCP1 expression and suppress mitochondrial biogenesis in white adipocytes (Kiskinis E. et al., EMBO J. 26:4831-4840, 2007; Powelka A. M. et al., J. Clin. Invest. 116:125-136, 2006; Wang H. et al., Mol. Cell. Biol. 28:2187-2200, 2008). […]"}, "[2]": {"tested_on": "3T3-F442A white preadipocytes", "assay": "Seahorse Bioanalyzer cellular respiration in 3T3-F442A white preadipocytes", "format": "cell-based", "conditions": "constitutive overexpression of FGF6", "text": "The Seahorse XF24 (Seahorse Bioscience, http://www.seahorsebio.com/) was utilized for respirometry to measure oxygen consumption rates (OCR; indicating oxidative phosphorylation) and extracellular acidification rates (ECAR; indicating extracellular pH) in mature brown adipocytes. The cell plates and assay cartridges for the Seahorse XF24 have four ports allowing for drug delivery to individual wells during measurement of the metabolic parameters. For a typical bioenergetic profile, cells are first treated with oligomycin to block ATP synthase, FCCP as an uncoupler and Rotenone to block Complex 1 of the ETC (all from Sigma). Example 2 provides additional details regarding the general method. Data provided in the Figures (e.g., FIG. 27) based on the Seahorse Bioanalyzer includes a bottom horizontal line which represents the baseline of the mechanics of the machine and is not related to the experiment.\nTo assess FGF6's role in the regulation of mitochondrial activity, FGF6 was stably expressed in WT-1 brown preadipocytes and 3T3-F442A white preadipocytes. Stable cells were generated by viral infection followed by drug selection.\nA profile of cellular respiration was developed by utilizing well-characterized mitochondrial toxins, as described in FIG. 5B. First, basal respiration was measured, followed by injection of oligomycin (an inhibitor of ATP synthase which allows measurement of ATP turnover). Then, the uncoupler FCCP (carbonilcyanide p-triflouromethoxyphenylhydrazone) was injected to measure respiratory capacity, followed by the complex 1 inhibitor rotenone (which prevents electron transfer activity and leaves only non-mitochondrial activity to be measured).\nAs mentioned above, 3T3-F442A white preadipocytes were also used to determine FGF6's role in mitochondrial activity regulation."}, "[3]": {"tested_on": "mature brown adipocytes", "assay": "Oxygen consumption rate in mature brown adipocytes (Seahorse)", "format": "cell-based", "conditions": "24 hours; vs buffer", "protocol": "To assess mitochondrial respiration, a Seahorse Extracellular Flux Analyzer (Seahorse Bioscience Inc., North Billerica, Mass.) was used to quantify oxygen consumption rates (OCR) of differentiated […] brown adipocytes. Wt-1 brown preadipocyte cells were seeded on 24-well format plates and allowed to adhere overnight. After adipogenic induction for 8 days, OCR was analyzed. To measure OCR […] oxidative phosphorylation, 0.5 μM oligomycin (EMD Chemicals Inc., Gibbstown, N.J.) was added to cells. Subsequently, 0.8 μM FCCP (carbonyl cyanide-p-trifluoromethoxyphenylhydrazone) and 1 μM respiratory chain inhibitors (rotenone) were added to measure maximal respiration and basal rates of nonmitochondrial respiration. As shown in FIGS. 23A and 23B, treatment of FGF6 enhanced oxygen consumption and glucose uptake in mature brown adipocytes. Thus, FGF6 was able to activate the mature brown adipocyte's ability to use glucose and increase energy expenditure without inducing UCP-1."}, "[4]": {"tested_on": "mature brown adipocytes", "assay": "Glucose uptake in mature brown adipocytes", "format": "cell-based", "conditions": "vs control", "protocol": "The following glucose uptake assay was used to determine whether FGF6 could impact cellular glucose uptake. Specifically, glucose uptake was monitored in WT-1 brown preadipocytes and 3T3-F442A white preadipocytes in the presence or absence of FGF6. After serum starvation in DMEM/H medium containing 1% of BSA for 2-3 h, cells were washed with HEPES buffer and then incubated with or without 100 nM insulin for 30 min in DMEM/H medium containing 1% of BSA. Glucose transport was determined by the addition of 2-deoxy-[3H]glucose (0.1 mM, 0.5 μCi/mL; PerkinElmer Life and Analytical Science, Waltham, Mass.). […] Cells were then lysed in 0.1% SDS, and glucose uptake was assessed in 4 mL of scintillant using Beckman LS6500 scintillation counter (Beckman Coulter, Indianapolis Ind.). Nonspecific 2-deoxy-[3H]glucose uptake was measured in the presence of cytochalasin B (20 μM) and was subtracted from the total uptake to get specific glucose uptake. Results were expressed as the mean±s.e.m. of the indicated number of experiments. The protein content was determined by the Bradford method.\nTo assess mitochondrial respiration, a Seahorse Extracellular Flux Analyzer (Seahorse Bioscience Inc., North Billerica, Mass.) was used to quantify oxygen consumption rates (OCR) of differentiated human brown adipocytes. […] After adipogenic induction for 8 days, OCR was analyzed. […]"}, "[5]": {"assay": "Insulin tolerance test in Chow or high fat diet mice", "format": "in vivo, C57BL6 mice", "conditions": "Chow or HFD mice, 0.5 mg/kg FGF6 s.c. and 1.5 U insulin per kg", "protocol": "In addition to testing the impact of FGF6 on glucose tolerance, an insulin tolerance test was also performed using Chow fed and Obese (HFD) mice. Animals were fasted for two hours before receiving an intraperitoneal dose of 1.5 IU of recombinant human insulin (Humalog; Eli Lilly and Company, Indianapolis, Ind.). Blood samples were collected from the tail vein for measurement of blood glucose levels using a glucometer before and 15, 30, and 60 min after injections of FGF6 and the buffer control."}}, "note": "Entries after “also recorded” stand apart in the source; their conditions may differ.", "data": [{"molecule": "FGF6: fibroblast growth factor 6; recombinant human FGF from R&D Systems, or mouse FGF6 cDNA overexpressed by lentiviral vector (protein) KRQRRLYCNVGIGFHLQVLPDGRISGTHEENPYSLLEISTVERGVVSLFGVRSALFVAMNSKGRLYATPSFQEECKFRETLLPNNYNAYESDLYQGTYIALSKYGRVKRGSKVSPIMTVTHFLPRI", "values": [{"measurement": "reduction of RIP140 mRNA expression", "setting": "[1]", "value": "50-80%"}, {"measurement": "gain of ATP turnover", "setting": "[2]", "value": 5, "unit": "fold"}, {"measurement": "gain of proton leak", "setting": "[2]", "value": 5, "unit": "fold"}, {"measurement": "increase in cellular respiration", "setting": "[2]", "value": "5-10 fold"}, {"measurement": "increase of basal respiration", "setting": "[2]", "value": "~7", "unit": "fold"}, {"measurement": "increase of maximal respiratory capacity", "setting": "[2]", "value": "~6", "unit": "fold"}, {"measurement": "oxygen consumption in mature brown adipocytes", "setting": "[3]", "value": "enhanced"}, {"measurement": "glucose uptake in mature brown adipocytes", "setting": "[4]", "value": "enhanced"}, {"measurement": "glucose levels in insulin tolerance test (insulin sensitivity)", "setting": "[5]", "value": "lower levels of glucose; also recorded: enhanced insulin sensitivity"}]}]}
